From publication PMC8693861, “Structure, mechanism, and inhibition of Hedgehog acyltransferase” (Molecular Cell, 2021)

B1: nanobody NB177 (VHH)
VHH: QVQLVESGGGLVQAGGSLRLSCTASGAIFSTYDVSWYRQAPEKPRELVAIITRGGNTHYADTVKGRFTISRDNAKNTVYLQMNSLKPEDTAVYYCHAGVQGAMLGPRNYWGQGTQVTVSS
B2: nanobody NB169 (VHH)
VHH: QVQLVESGGGLVQAGGSLRLSCAASGSIRSINGMGWYRQAPGKQRELVAALSSGGSTNYADSVKGRFTISRDNAKKTVNLQMNSLKPEDTAVYYCNARRGGRSWSEGPPYDYWGQGTQVTVSS

Molecular target: biotinylated human HHAT-Avi-1D4 (pHR-CMV-TetO2-HHAT-wildtype-Avi-1D4) (Homo sapiens, natural variant VAR_024743, strain, biotin on the biotinylation tag)
Sequence (Q5VTY9 other isoform, or with tags, fused parts or gaps, change not shown): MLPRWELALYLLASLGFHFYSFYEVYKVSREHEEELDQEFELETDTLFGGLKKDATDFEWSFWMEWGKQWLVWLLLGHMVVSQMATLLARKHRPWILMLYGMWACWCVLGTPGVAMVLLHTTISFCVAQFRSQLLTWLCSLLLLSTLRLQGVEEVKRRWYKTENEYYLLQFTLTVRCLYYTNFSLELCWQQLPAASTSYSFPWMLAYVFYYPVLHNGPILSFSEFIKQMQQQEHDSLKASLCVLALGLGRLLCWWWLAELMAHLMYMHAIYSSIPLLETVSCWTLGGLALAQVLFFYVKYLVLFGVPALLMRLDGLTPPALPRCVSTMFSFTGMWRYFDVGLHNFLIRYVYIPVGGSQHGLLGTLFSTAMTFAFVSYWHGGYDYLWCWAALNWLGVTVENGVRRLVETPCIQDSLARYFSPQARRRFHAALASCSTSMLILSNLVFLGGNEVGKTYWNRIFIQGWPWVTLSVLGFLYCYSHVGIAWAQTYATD
Assay: cell-based or functional assay

Row | Binder | IC50 of inhibition of HHAT-catalysed palmitoyl transfer to a SHH peptide (acyl-cLIP assay); blocks HHAT with SHH [nM]
1 | B1 | 0.9
2 | B2 | 1.3
